The chains are these.
B1: HDV Ribozyme (parent)
chain: GGCCGGCAUGGUCCCAGCCUCCUCGCUGGCGCCGGCUGGGCAACAUUCCGAGGGGACCGUCCCCUCGGUAAUGGCGAAUGGGACCCA

The data set covers variants of B1. The data set is described as follows: self-cleavage, relative activity (ratio to wild type); higher = more cleavage; co-transcriptional.
For the variant U12A C66U, the self-cleavage amounted to 0.317.
Then U12A U60C, with 0.391; and U12A U60A, with 0.453; and U12A A43C, with 0.161.
For U12A A43G the value was 0.0831; for U12A C85U, 0.481; for U12A C85G, 0.208.
Then U12A C85A, with 0.383; and G11C G52A, with 0.232; and G11C G52U, with 0.228.
Consider G11U C48G, for which the self-cleavage amounted to 0.212.
For G11C C48U the value was 0.119.
For G11C C48G the value was 0.399.
For G11C C21A the value was 0.0755; for G11U C61U, 0.443; for G11U C61A, 0.355.
With G11U C61G, the self-cleavage is 0.315.
For G11C C62A the value was 0.475; for U12A A78C, 0.123; for U12A A78G, 0.237.
Take U12A A45C: the self-cleavage amounted to 0.
For U12A A45G the value was 0.277; for U12A A45U, 0.
For the variant G11U C24A, the self-cleavage came out at 0.112.
Then G11U G35C, with 0.0449.
For G11U G35A the value was 0.241.
For U12A G28U the value was 0.181; for U12A G28A, 0.0314.
For the variant U12A C18A, the self-cleavage is 0.0604.
For U12A C18U the value was 0.217; for G11U G53C, 0.284; for G11U G53U, 0.385.
For G11U G25A the value was 0; for G11U G25C, 0.104.
G11C C85A: the self-cleavage was determined as 1.18.
With G11C C85U, the self-cleavage is 0.266.
Then U12A A87U, with 0.262; and U12A A87G, with 0.115.
Then U12A A87C, with 0.251; and G11C G17C, with 0.0536.
G11C G17A: the self-cleavage worked out at 0.231.
Then G11U C18G, with 0.158; and G11U U37C, with 0.208.
For G11U A16C the value was 0.38; for U12C A77C, 0.237; for G11U G38U, 0.0961.
For U12C A51U the value was 0.359.
Regarding G11U U79G, the self-cleavage was found to be 0.231.
For G11U U79A the value was 0.148.
Consider U12C A16G, for which the self-cleavage is 0.
For G11C G74U the value was 0.0963.
With G11C G74C, the self-cleavage amounted to 0.
Then G11C C63G, with 0.434.
For the variant G11C C63A, the self-cleavage was found to be 0.314.
For U12A G82C the value was 0.302; for U12A G82U, 0.161; for G11U C84A, 1.12.
Then G11U C84U, with 0.292.
Then G11U C62A, with 0.487; and G11U C62G, with 0.151.
U12A C41A: the self-cleavage was 0.437.
For U12A U72G, the self-cleavage was found to be 0.185.
Then U12A G50C, with 0.332; and G11C G80A, with 0.136; and G11U C33G, with 0.0594.
Then G11U C33U, with 0.0997.
Then G11U G81A, with 0.0623; and U12A A51U, with 0.277; and U12A A51C, with 0.237.
As to U12A G38U, the self-cleavage worked out at 0.0277.
For G11C C19U the value was 0.0302; for G11C C19A, 0.0314.
Then G11C C19G, with 0.0811; and U12A G81C, with 0.0723.
Then U12A G81U, with 0.122.
G11C C75G: the self-cleavage was determined as 0.133.
As for G11C C75A, the self-cleavage stood at 0.0536.
Then G11C G76A, with 0.312.
Then G11C G76U, with 0.604; and G11C G76C, with 0.628; and G11U C14A, with 0.0707.
As for U12A G53C, the self-cleavage came out at 0.475.
Consider U12A G53A, for which the self-cleavage came out at 0.403.
Regarding G11U C13G, the self-cleavage stood at 0.0831.
Then G11U C13A, with 0.197; and U12A C26G, with 0.609; and G11C C41G, with 0.712.
Consider G11C C41U, for which the self-cleavage came to 0.0831.
Then G11U C58A, with 0.326.
Then G11U A70U, with 0.228; and G11U A70G, with 0.201.
Then G11U A77G, with 0.283; and G11C U79G, with 0.0875.
Turning to G11C U79A, the self-cleavage is 0.0723.
For G11U C15G the value was 0.166; for G11C C18A, 0.0804.
For G11C C18U, the self-cleavage turned out to be 0.0992.
Then G11C G40A, with 0.208; and G11C G40C, with 0.0475.
For G11U U20C the value was 0.0248; for G11C G81A, 0; for G11U C49U, 0.386.
For the variant G11U C49G, the self-cleavage amounted to 0.166.
For G11C C58U the value was 0.242; for G11C C58A, 0.378.
For G11C C64U the value was 0.269.
For G11C C64A the value was 0.629; for U12A U47G, 0.262; for U12A U47C, 0.332.
G11U A42G: the self-cleavage was determined as 0.0386.
For G11U A42C the value was 0.0308; for G11C U23A, 0.465.
For U12A C86A the value was 0.623.
For G11C C57A the value was 0.453.
For G11C C57G, the self-cleavage came to 0.249.
For the variant G11C C57U, the self-cleavage stood at 0.388.
Consider G11U A78G, for which the self-cleavage came out at 0.106.
Regarding G11U A78C, the self-cleavage was determined as 0.02.
Then G11U G52C, with 0.218; and G11U G52A, with 0.375.
Then U12A U23C, with 0.237; and U12A U37A, with 0.
Then U12A C63G, with 0.293.
Take U12A G31U: the self-cleavage is 0.0811.
Then U12A G31A, with 0.125; and U12C A42G, with 0.0831; and G11C C32A, with 0.0437.
Then G11U G55C, with 0.35.
Then G11U G55A, with 0.463.
In the case of G11U G55U, the self-cleavage was 0.436.
For U12A A16G the value was 0.383; for U12A A16U, 0.32; for U12A C49G, 0.115.
Then G11U A71U, with 0.158.
For the variant G11U A71G, the self-cleavage was 0.302.
On to G11C G82U, for which the self-cleavage stood at 0.104.
For G11C G82C the value was 0.287.
Consider G11U G74A, for which the self-cleavage came out at 0.114.
For G11U G74C the value was 0.0845.
For U12A G59U the value was 0.214.
Then G11U A87U, with 0.199.
On to U12A U65A, for which the self-cleavage came out at 0.431.
As for G11U A45C, the self-cleavage is 0.0841.
On to G11U A45G, for which the self-cleavage was found to be 0.587.
Then U12A C19G, with 0; and G11C G68C, with 0.0831; and G11C G68U, with 0.291.
G11U U27C: the self-cleavage was determined as 0.388.
For G11U the value was 0.366; for U12C A43G, 0.0437.
Then U12A U27G, with 0.237.
U12A U27C: the self-cleavage was determined as 0.35.
Regarding U12A A70U, the self-cleavage amounted to 0.332.
Then U12A A70G, with 0.277; and G11U G50U, with 0.583; and G11U G68C, with 0.297.
With G11U G68U, the self-cleavage turned out to be 0.17.
For G11U G68A the value was 0.205; for G11C G38C, 0.0755.
As to U12A G39U, the self-cleavage stood at 0.0489.
With U12A G39C, the self-cleavage is 0.0594.
For U12C A56G the value was 0.623.
For G11U G54A the value was 0.313; for G11U G54C, 0.57.
Then G11C G50C, with 0.365; and U12A C33U, with 0.44; and U12A C33A, with 0.0604.
